Experimental data published in the supplement of paper PMC9170038.

System: MS2 coat protein
Experiment: apparent KD of MS2 coat protein; designed switch direction (-1 OFF switch, 1 ON switch): -1; higher = weaker reporter binding
Summary of the method: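 Designed RNA switches with common flanks were transcribed on Illumina chips by stalled E. coli RNA polymerase and titrated with SNAP-549-labelled MS2 coat protein, from 0.7 or 1.5 nM doubling to 3 µM, in Tris-HCl pH 7.5 buffer with KCl, MgCl2, BSA, DTT, tRNA and Tween-20. Steps lasted 0.8–1.5 h (lowest) to 10–20 min (highest). Titrations ran without input, with 200 uM small-molecule ligand, or with an oligonucleotide input. Normalised cluster fluorescence was curve-fitted, and apparent KD is the per-design median over clusters.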

[1] = Eterna round: R95, input ligand: FMN 200 uM
[2] = Eterna round: R95, input ligand: microRNA oligo, concentration not stated
[3] = Eterna round: R95, input ligand: none
[4] = input ligand: microRNA oligo, concentration not stated

Sequence	apparent KD of MS2 coat protein [1] [nM]	apparent KD of MS2 coat protein [2] [nM]	apparent KD of MS2 coat protein [3] [nM]	apparent KD of MS2 coat protein (input ligand: FMN 200 uM) [nM]	apparent KD of MS2 coat protein (input ligand: none) [nM]	apparent KD of MS2 coat protein [4] [nM]
UUUUAACAUGAGGAUCACCCAUGUGAGGAUAUCGUAUUUUAUAUUAAUAUUAAUAAAACGAGAAGGCACAUUUU [JMF 9] (puzzle: Exclusion 1)	28.4	25.4	29.5	–	–	–
CCGAAGUGGCGGUCCUAUGACAUGAGGAUCACCCAUGUACUUCGCCACAAGCUUUUUGCUCAUCUUAUAGUUCUCGG [Ator] (puzzle: Sensor v3, turn-off variant 1)	16.4	25.1	16.4	–	–	–
UGUAUACGAGGAUAUACAUGAGGAUCACCCAUGUGGACGUUGGAGAACGGCCCUCGUAGUAGAAGGCGUAUGAG [Eternabot (L2) Solution 53] (Eterna round: R97, puzzle: Exclusion 3)	–	–	–	51.3	15.4	–
CCGAAAAGGAAGGAUAUGCUUGACGAAAGUCAAGCAGAAGGUCCUACAUGAGGAUCACCCAUGUGGUCCUUCGG [Mat - Exclusion 6 - Eli Mod - D36] (Eterna round: R97, puzzle: Exclusion 6)	–	–	–	629	450	–
UUUUAGGUAGGAUAUACAUUUUUUUUAUUAUCCUCAUUAUUACAUGAGGAUCACCCAUGUAGAAGGACCAUUUU [My Design] (puzzle: Exclusion 2)	–	181	–	–	–	–
GCCGAGUGAGGAUAUACAUGAGGAUCACCCAUGUAAACACGAAAGCAAGUGUCCCUCAGUAGAAGGCGCCUGGA [Aerusesxe] (puzzle: Exclusion 3)	–	14.8	–	–	–	–
UGCGCUUAAGGAUAUACUUCGGUGCGCCGAGAGUACGGCUAACUUGAGGAUCACCCAAGUAGAAGGUAAGAAAC [Esleberibe] (Eterna round: R97, puzzle: Exclusion 2)	–	–	–	42	1270	–
GUACAGGUAGGAUAUCGAUACAAGAACAUGAGGAUCACCCAUGUGGGUCGAUUUUCGAAGCGAGAAGGACCAAAUG [Rixeatenso] (puzzle: Exclusion 5)	406	132	145	–	–	–
ACUUACUGAGGAUAUACAUAGAUUUACAUGAGGAUCACCCAUGUUCCUCUUUGUAUAAAUGUAGAAGGCAGAAGAU [Mat - Exclusion 5 - JL Mod - D59] (Eterna round: R97, puzzle: Exclusion 5)	–	–	–	183	96.5	–
CCCGUCGAUGUAGGAUAUGCCCGGGUCUCCCGGGCAGAAGGACAUGAGGAUCACCCAUGUUGAUGAGGAUCACCCAUCAAUGGG [Double but mutated MS2] (Eterna round: R96, puzzle: Exclusion NG 1)	–	–	–	16.9	20.7	15.8
GCGGACUUGAUCGUGAGAUCAGAGACAUGAGGAUCACCCAUGUAGGAUAUCGAUUCGUUUCGAAUCGAGAAGGGCGUGGUCCGC [JL denovo 15] (Eterna round: R96, puzzle: Exclusion NG 3)	–	–	–	83.9	70.2	52.2
GAUCCUCGGGUUAGGAUAUCGAGGAUGUACGUCAGCGAGAAGGAACAUGAGGAUCACCCAUGUUGCUUAGCAAG [BmEX4 A.18] (Eterna round: R97, puzzle: Brourd's mod of Exclusion 4)	–	–	–	21.1	19.5	–
AAAUCACAUGAGGAUCACCCAUGUGAGGAUAUGAUACUAUGUACUUCGGUACAUAGUAUCAGAAGGCAUGUGGA [Ex1-3: 89] (puzzle: Exclusion 1)	–	28.2	–	–	–	–
GCAGGCGACUAGGCUCGUCUUAUUUUGAGAAGAUUGAAAACAUGAGGAUCACCCAUGUUUGUGGGAGAGUUGGAGUG [JR_SV3TOV2_Sub013] (puzzle: Sensor v3, turn-off variant 2)	59.4	73	65.3	–	–	–
ACCUAUGAGGAGGAUAUACGGUGCGAAAGGAAGGUAGAAGGCUUCACAUGAGGAUCACCCAUGUCGAUAAGCGA [EX6 #85] (Eterna round: R97, puzzle: Exclusion 6)	–	–	–	27.7	23.3	–
AAACCUGCCCAUGACCGCAAGCUUUUUGCUUGUCUUACCACAUGAGGAUCACCCAUGUGACAUGGGCUCCUUAUAAA [Usteorrila] (puzzle: Sensor v3, turn-off variant 2)	12.7	9.84	11.5	–	–	–
GACUGUCUAGGAUAUGCGACGUUUUACAUGAGGAUCACCCAUGUUGUCUGCGUGUGUGUGGCAGAAGGAGACAAAC [Eses] (puzzle: Exclusion 5)	–	13.3	–	–	–	–
AUCAGCUCGUCAGGAUAUGCACAUGAGGAUCACCCAUGUAAGAUCAAGCUGCUUCGGCAGCAAGUGCAGAAGGGACGAGCUGAU [ENG2/9-B2] (Eterna round: R96, puzzle: Exclusion NG 2)	–	–	–	151	229	177

Sequence	apparent KD of MS2 coat protein [1] [nM]	apparent KD of MS2 coat protein [2] [nM]	apparent KD of MS2 coat protein [3] [nM]	apparent KD of MS2 coat protein (input ligand: FMN 200 uM) [nM]	apparent KD of MS2 coat protein (input ligand: none) [nM]	apparent KD of MS2 coat protein [4] [nM]
GGUGGACAUGAGGAUCACCCAUGUGAGGAUAUCGGCUAUCUACUCGCUGACGGCUGCUCGAGAAGGCGCAUUGU [Exclusion 1 V90] (puzzle: Exclusion 1)	–	44.8	–	–	–	–
AACCUGAGGCAAAGCUUUAGGUGUACAUGAGGAUCACCCAUGUAGGAUAUGGUAGGCUUUGCUUACCAGAAGGACAUUAUGAUG [Mat - Exclusion NG 3 - Mod of JL - D50] (Eterna round: R96, puzzle: Exclusion NG 3)	–	–	–	68.6	51.7	41.9
UUAGAUAGGUCAGGAUAUCGAUGAUUGAAUAGUAUGAUUUACAUGAGGAUCACCCAUGUUUUGUACGAGAAGGGACGUUAGAUU [JR_ExcNG2_Sub020] (Eterna round: R96, puzzle: Exclusion NG 2)	–	–	–	26.9	28.5	22.6
GAUUAUGCGAGCUUUAGGGACAUGAGGAUCACCCAUGUUCGUCUUAUUGGUCUGGGUACACUAACAUACCUAAAUCU [JMF 22] (puzzle: Sensor v3, turn-off variant 1)	33.4	47.9	36.2	–	–	–
UACUUACGAGGAUAUCGAUUGUGGUACAUGAGGAUCACCCAUGUAUGUGAUAUUGUAUUUCGAGAAGGCGUUCAGU [JR_E5_Sub061] (puzzle: Exclusion 5)	–	22.7	–	–	–	–
UGGUAACAUGAGGAUCACCCAUGUCAGGAUAUCAGUAAGAAGAGAUUAGAGUAGAAUAUGAGAAGGGACUAUAG [Excluse me! 1 - Jieux - Exclusion 1] (puzzle: Exclusion 1)	–	35.8	–	–	–	–
AAUGAUUGAUGAGGAUAUUGUGGUGAAACACGACGAGAAGGCAUAUGUCACAUGAGGAUCACCCAUGUGAGCUUUGUGGAUAUA [Ex NG1 #67] (Eterna round: R96, puzzle: Exclusion NG 1)	–	–	–	–	–	18.3
AUAUUAAUAUAGGAUAUCGAAUUUAUUAAUUAUCGAGAAGGAUAAACAUGAGGAUCACCCAUGUGGUAUCAUGG [Mat - Exclusion 6 - JL Mod - D39] (puzzle: Exclusion 6)	–	256	–	–	–	–
AAUACAAGCUAUUGAUCCCACAUGAGGAUCACCCAUGUACCUGGCCGUGAGACCAGGUUUACAAUAGCUCGUCUUAU [Sensor-V1 #48] (Eterna round: R97, puzzle: Sensor, turn-off variant 1)	–	–	–	107	93.8	–
UUGUAGUGAGGAUAUAUAUAGAGGUUUUAUUAAUUUUUAAAACUUGAGGAUCACCCAAGUAGAAGGCGCAAAGU [JR_Ex2_Sub071] (Eterna round: R97, puzzle: Exclusion 2)	–	–	–	41.5	39.9	–
GUGGUGACAGGAUAUACAUGAGGAUCACCCAUGUGAGGAGGACGAGACAGGUGAAGGAGUAGAAGGGUCAGAGA [JR_Exclu3_Sub026] (puzzle: Exclusion 3)	134	61.9	95.6	–	–	–
GCACGGAAUGUAGGAUAUUAGUGCGAUUAGCACUGAGAAGGACAUGAGGAUCACCCAUGUAACUCAAUAAUAAACCUUCCGUGC [Eli exng1 - 045] (Eterna round: R96, puzzle: Exclusion NG 1)	–	–	–	11.2	12.2	8.85
AGUUGGCGAGGAUAUACAUGAGGAUCACCCAUGUGAGAGAUACUAGUGAGGUCGAUUGGUAGAAGGCGCUGACA [Mat - Exclusion 3 - Mod of JL D80] (puzzle: Exclusion 3)	–	91.5	–	–	–	–
CAUGAUCUUCGGAUCAUGUACAUGAGGAUCACCCAUGUGACGAGUUACAUGAAAAACAAGCUUUUUGCUCGUCUUAU [Sensor v3 - Turn-off variant 1 - 9] (puzzle: Sensor v3, turn-off variant 1)	42.1	121	49.8	–	–	–
UUAUACAAGCAAAGAUCCCACAUGAGGAUCACCCAUGUGCUCGUCUUAUAAGGUACUGUGACGAAAGUCACGGUACC [Eli 87 + Mat D67 6] (Eterna round: R97, puzzle: Sensor, turn-off variant 1)	–	–	–	42.3	41.6	–
AUCGUGCAGCUUUGCUGUACGAGUACAUGAGGAUCACCCAUGUAGGAUAUGGUACGCUUUGCGUGCUAGAAGGAUAUGUGUUAG [EX ENG3 1.43] (Eterna round: R96, puzzle: Exclusion NG 3)	–	–	–	46.6	44.2	34.8
CGUCAUCAAGUCAGGAUAUCGUCAAAUCAAUCAGGCGAGAAGGGACAUGAGGAUCACCCAUGUCGACUCAUCAC [Ex4 #3] (Eterna round: R97, puzzle: Brourd's mod of Exclusion 4)	–	–	–	24.9	21.3	–
